*1 amine or outer side, *2 acyl side, *3 side chain or, on linkers, in order; H or OH if unused. Where no end group is shown, it is not given here. Side-chain parts run from the residue outwards. [ ]: non-standard residue; d: D form. The star is where a group is joined. γGlu = O=C(O)[C@H](CCC(=O)[*:2])N[*:1]; Palmitoyl = CCCCCCCCCCCCCCCC(=O)*; Orn = NCCC[C@H](N)C(=O)O; Dab = NCC[C@H](N)C(=O)O; Dap = NC[C@H](N)C(=O)O
B1: SEQ ID NO: (88) (peptide)
peptide: H[dS]QGTFTSDLSKQMESRRAQDFIEWLKSGGPSSGAPPPS[Orn]([γGlu-Palmitoyl])-NH2
modifications: N-terminus assumed
SMILES: CCCCCCCCCCCCCCCC(=O)N[C@@H](CCC(=O)NCCC[C@H](NC(=O)[C@H](CO)NC(=O)[C@@H]1CCCN1C(=O)[C@@H]1CCCN1C(=O)[C@@H]1CCCN1C(=O)[C@H](C)NC(=O)CNC(=O)[C@H](CO)NC(=O)[C@H](CO)NC(=O)[C@@H]1CCCN1C(=O)CNC(=O)CNC(=O)[C@H](CO)NC(=O)[C@H](CCCCN)NC(=O)[C@H](CC(C)C)NC(=O)[C@H](Cc1c[nH]c2ccccc12)NC(=O)[C@H](CCC(=O)O)NC(=O)[C@@H](NC(=O)[C@H](Cc1ccccc1)NC(=O)[C@H](CC(=O)O)NC(=O)[C@H](CCC(N)=O)NC(=O)[C@H](C)NC(=O)[C@H](CCCNC(=N)N)NC(=O)[C@H](CCCNC(=N)N)NC(=O)[C@H](CO)NC(=O)[C@H](CCC(=O)O)NC(=O)[C@H](CCSC)NC(=O)[C@H](CCC(N)=O)NC(=O)[C@H](CCCCN)NC(=O)[C@H](CO)NC(=O)[C@H](CC(C)C)NC(=O)[C@H](CC(=O)O)NC(=O)[C@H](CO)NC(=O)[C@@H](NC(=O)[C@H](Cc1ccccc1)NC(=O)[C@@H](NC(=O)CNC(=O)[C@H](CCC(N)=O)NC(=O)[C@@H](CO)NC(=O)[C@@H](N)Cc1c[nH]cn1)[C@@H](C)O)[C@@H](C)O)[C@@H](C)CC)C(N)=O)C(=O)O
B2: SEQ ID NO: (92) (peptide)
peptide: H[dS]QGTFTSDLSKQMESRRAQDFIEWLKEGGPSSGRPPPSK([γGlu-Palmitoyl])-NH2
modifications: N-terminus assumed
SMILES: CCCCCCCCCCCCCCCC(=O)N[C@@H](CCC(=O)NCCCC[C@H](NC(=O)[C@H](CO)NC(=O)[C@@H]1CCCN1C(=O)[C@@H]1CCCN1C(=O)[C@@H]1CCCN1C(=O)[C@H](CCCNC(=N)N)NC(=O)CNC(=O)[C@H](CO)NC(=O)[C@H](CO)NC(=O)[C@@H]1CCCN1C(=O)CNC(=O)CNC(=O)[C@H](CCC(=O)O)NC(=O)[C@H](CCCCN)NC(=O)[C@H](CC(C)C)NC(=O)[C@H](Cc1c[nH]c2ccccc12)NC(=O)[C@H](CCC(=O)O)NC(=O)[C@@H](NC(=O)[C@H](Cc1ccccc1)NC(=O)[C@H](CC(=O)O)NC(=O)[C@H](CCC(N)=O)NC(=O)[C@H](C)NC(=O)[C@H](CCCNC(=N)N)NC(=O)[C@H](CCCNC(=N)N)NC(=O)[C@H](CO)NC(=O)[C@H](CCC(=O)O)NC(=O)[C@H](CCSC)NC(=O)[C@H](CCC(N)=O)NC(=O)[C@H](CCCCN)NC(=O)[C@H](CO)NC(=O)[C@H](CC(C)C)NC(=O)[C@H](CC(=O)O)NC(=O)[C@H](CO)NC(=O)[C@@H](NC(=O)[C@H](Cc1ccccc1)NC(=O)[C@@H](NC(=O)CNC(=O)[C@H](CCC(N)=O)NC(=O)[C@@H](CO)NC(=O)[C@@H](N)Cc1c[nH]cn1)[C@@H](C)O)[C@@H](C)O)[C@@H](C)CC)C(N)=O)C(=O)O
B3: SEQ ID NO: (91) (peptide)
peptide: H[dS]QGTFTSDLSKQMESRRARLFIEWLKSGGPSSGAPPPSK([γGlu-Palmitoyl])-NH2
modifications: N-terminus assumed
SMILES: CCCCCCCCCCCCCCCC(=O)N[C@@H](CCC(=O)NCCCC[C@H](NC(=O)[C@H](CO)NC(=O)[C@@H]1CCCN1C(=O)[C@@H]1CCCN1C(=O)[C@@H]1CCCN1C(=O)[C@H](C)NC(=O)CNC(=O)[C@H](CO)NC(=O)[C@H](CO)NC(=O)[C@@H]1CCCN1C(=O)CNC(=O)CNC(=O)[C@H](CO)NC(=O)[C@H](CCCCN)NC(=O)[C@H](CC(C)C)NC(=O)[C@H](Cc1c[nH]c2ccccc12)NC(=O)[C@H](CCC(=O)O)NC(=O)[C@@H](NC(=O)[C@H](Cc1ccccc1)NC(=O)[C@H](CC(C)C)NC(=O)[C@H](CCCNC(=N)N)NC(=O)[C@H](C)NC(=O)[C@H](CCCNC(=N)N)NC(=O)[C@H](CCCNC(=N)N)NC(=O)[C@H](CO)NC(=O)[C@H](CCC(=O)O)NC(=O)[C@H](CCSC)NC(=O)[C@H](CCC(N)=O)NC(=O)[C@H](CCCCN)NC(=O)[C@H](CO)NC(=O)[C@H](CC(C)C)NC(=O)[C@H](CC(=O)O)NC(=O)[C@H](CO)NC(=O)[C@@H](NC(=O)[C@H](Cc1ccccc1)NC(=O)[C@@H](NC(=O)CNC(=O)[C@H](CCC(N)=O)NC(=O)[C@@H](CO)NC(=O)[C@@H](N)Cc1c[nH]cn1)[C@@H](C)O)[C@@H](C)O)[C@@H](C)CC)C(N)=O)C(=O)O
B4: SEQ ID NO: (90) (peptide)
peptide: H[dS]QGTFTSDLSKQMESRRAQDFIEWLKSGGPSSGAPPPS[Dap]([γGlu-Palmitoyl])-NH2
modifications: N-terminus assumed
SMILES: CCCCCCCCCCCCCCCC(=O)N[C@@H](CCC(=O)NC[C@H](NC(=O)[C@H](CO)NC(=O)[C@@H]1CCCN1C(=O)[C@@H]1CCCN1C(=O)[C@@H]1CCCN1C(=O)[C@H](C)NC(=O)CNC(=O)[C@H](CO)NC(=O)[C@H](CO)NC(=O)[C@@H]1CCCN1C(=O)CNC(=O)CNC(=O)[C@H](CO)NC(=O)[C@H](CCCCN)NC(=O)[C@H](CC(C)C)NC(=O)[C@H](Cc1c[nH]c2ccccc12)NC(=O)[C@H](CCC(=O)O)NC(=O)[C@@H](NC(=O)[C@H](Cc1ccccc1)NC(=O)[C@H](CC(=O)O)NC(=O)[C@H](CCC(N)=O)NC(=O)[C@H](C)NC(=O)[C@H](CCCNC(=N)N)NC(=O)[C@H](CCCNC(=N)N)NC(=O)[C@H](CO)NC(=O)[C@H](CCC(=O)O)NC(=O)[C@H](CCSC)NC(=O)[C@H](CCC(N)=O)NC(=O)[C@H](CCCCN)NC(=O)[C@H](CO)NC(=O)[C@H](CC(C)C)NC(=O)[C@H](CC(=O)O)NC(=O)[C@H](CO)NC(=O)[C@@H](NC(=O)[C@H](Cc1ccccc1)NC(=O)[C@@H](NC(=O)CNC(=O)[C@H](CCC(N)=O)NC(=O)[C@@H](CO)NC(=O)[C@@H](N)Cc1c[nH]cn1)[C@@H](C)O)[C@@H](C)O)[C@@H](C)CC)C(N)=O)C(=O)O

Target: human GLP-1 receptor (human, UniProt P43220 24-463)
Assay: cell-based or functional assay

Binder	EC50 hGLP-1R (cAMP formation) [nM]
H[dS]QGTFTSDLSKQMESRRAQDFIEWLKSGGPSSGAPPPS[Dab]([γGlu-Palmitoyl])-NH2 [SEQ ID NO: (89)]	0.0059
B1	0.0051
H[dS]QGTFTSDLSKQMESRRAQDFIEWLKSGGPSSGAPPPSK([γGlu-γGlu-Palmitoyl])-NH2 [SEQ ID NO: (97)]	0.0047
B2	0.006
B3	0.0067
B4	0.0049
HSQGTFTSDLSKQMEERRAQDFIEWLKNGGPSSGAPPPS-NH2 [SEQ ID NO: (15)]	0.0352
H[dS]QGTFTSDLSKQMESRRAQDFIEWLKSGGPSSGAPPPSK([γGlu-aleuritolyl])-NH2 [SEQ ID NO: (93)]	0.188

Target: human glucagon receptor (human, UniProt P47871 26-477)
Assay: cell-based or functional assay

human glucagon receptor, sequence (P47871 26-477): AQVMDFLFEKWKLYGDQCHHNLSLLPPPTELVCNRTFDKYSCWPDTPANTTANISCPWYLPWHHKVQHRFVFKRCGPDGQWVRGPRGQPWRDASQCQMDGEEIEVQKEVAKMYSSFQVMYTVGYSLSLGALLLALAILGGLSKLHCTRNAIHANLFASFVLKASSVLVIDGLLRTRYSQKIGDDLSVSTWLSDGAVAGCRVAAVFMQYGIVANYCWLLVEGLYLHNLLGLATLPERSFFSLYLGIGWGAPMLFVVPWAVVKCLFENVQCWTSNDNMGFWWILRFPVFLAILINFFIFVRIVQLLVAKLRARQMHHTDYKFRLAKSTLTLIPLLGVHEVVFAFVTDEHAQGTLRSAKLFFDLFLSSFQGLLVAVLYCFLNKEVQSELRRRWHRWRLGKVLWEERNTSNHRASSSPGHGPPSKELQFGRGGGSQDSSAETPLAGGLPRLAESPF

Binder	EC50 hGlucagonR (cAMP formation) [nM]
H[dS]QGTFTSDLSKQMESRRAQDFIEWLKSGGPSSGAPPPS[Dab]([γGlu-Palmitoyl])-NH2 [SEQ ID NO: (89)]	0.0198
B1	0.0182
H[dS]QGTFTSDLSKQMESRRAQDFIEWLKSGGPSSGAPPPSK([γGlu-γGlu-Palmitoyl])-NH2 [SEQ ID NO: (97)]	0.0363
B2	0.038
B3	0.121
B4	0.0336
HSQGTFTSDLSKQMEERRAQDFIEWLKNGGPSSGAPPPS-NH2 [SEQ ID NO: (15)]	0.538
H[dS]QGTFTSDLSKQMESRRAQDFIEWLKSGGPSSGAPPPSK([γGlu-aleuritolyl])-NH2 [SEQ ID NO: (93)]	1.87

From patent US20130336893A1 (Sanofi, published 2013)
